± gives the standard error. For part of these data: Fewer inactive variants are shown than the library holds.
B1: glmS ribozyme (parent)
chain: AUAAAAGCGCCAGAACUACAGAAAUGUAGUUGACGAGGAGGAGGUUUAUCGAAUUUUCGGCGGAUGCCUCCAAA

Columns and labels:
Conditions in all cases: with glucosamine-6-phosphate
glucosamine-6-phosphate [1] = variants of: B1; experiment: kcat; higher = faster cleavage; RNA array
How it was run: (§1)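 Barcoded ribozyme variants, transcribed in situ by E. coli RNA polymerase on sequenced MiSeq chips, were followed via a hybridised Cy3 probe at 37 °C. Glucosamine-6-phosphate ranged from 40 μM to 10 mM in HEPES/KCl/Mg(OAc)2 buffer. kobs came from decay fits to per-tile medians, and kcat and KM from weighted Michaelis–Menten fits.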

glucosamine-6-phosphate [2] = variants of: B1; experiment: self-cleavage kobs at 160 uM GlcN6P; higher = faster cleavage; RNA array
How it was run: as §1

glucosamine-6-phosphate [3] = variants of: B1; experiment: self-cleavage kobs at 640 uM GlcN6P; higher = faster cleavage; RNA array
How it was run: as §1

glucosamine-6-phosphate [4] = variants of: B1; experiment: self-cleavage kobs at 2500 uM GlcN6P; higher = faster cleavage; RNA array
How it was run: as §1

glucosamine-6-phosphate [5] = variants of: B1; experiment: self-cleavage kobs at 10000 uM GlcN6P; higher = faster cleavage; RNA array
How it was run: as §1

glucosamine-6-phosphate [6] = variants of: B1; experiment: KM; higher = weaker cofactor use; RNA array
How it was run: as §1

glucosamine-6-phosphate [7] = variants of: B1; experiment: self-cleavage kobs at 40 uM GlcN6P; higher = faster cleavage; RNA array
How it was run: as §1

Variant	kcat (glucosamine-6-phosphate [1]) [s⁻¹]	self-cleavage kobs at 160 uM GlcN6P (glucosamine-6-phosphate [2]) [s⁻¹]	self-cleavage kobs at 640 uM GlcN6P (glucosamine-6-phosphate [3]) [s⁻¹]	self-cleavage kobs at 2500 uM GlcN6P (glucosamine-6-phosphate [4]) [s⁻¹]	self-cleavage kobs at 10000 uM GlcN6P (glucosamine-6-phosphate [5]) [s⁻¹]	KM (glucosamine-6-phosphate [6]) [mM]	self-cleavage kobs at 40 uM GlcN6P (glucosamine-6-phosphate [7]) [s⁻¹]
AUAAAAGCGCCAGAACUACAGAAAUGUAGUUGACGAGGAGGAGGUUUAUCGGAUUUACGGCGGAUGCCUCCAAA	0.000484 ± 0.00016	4.1e-05 ± 1.6e-05	6.62e-05 ± 9.6e-06	0.00023 ± 2.4e-05	0.000289 ± 8e-05		
AUAAAAGCGCCAGAACUACAGAAAUGUAGUUGACGAGGAGGAGGUUUAUCGGAUUUCCGGCGGAUGCCUCCAAA	0.000378 ± 1.3e-05	2.83e-05 ± 1.3e-05	9.94e-05 ± 1e-05	0.000227 ± 3.1e-05	0.000314 ± 4.4e-05	1.79 ± 0.11	
AUAAAAGCGCCAGAACUACAGAAAUGUAGUUGACGAGGAGGAGGUUUAUCGGAUUUUCGGCGGGUGCCUCCAAA	0.00183 ± 0.00049	6.03e-05 ± 9.6e-06	0.00036 ± 3.9e-05	0.000616 ± 0.0001	0.00136 ± 0.00013	3.69 ± 1.5	2.83e-05 ± 7.3e-06
AUAAAAGCGCCAGAACUACAGAAAUGUAGUUGACGAGGAGGAGGUUUAUCGGAUUUUCGGCGGCUGCCUACAAA	1.92e-05 ± 6.2e-06						
AUAAAAGCGCCAGAACUACAGAAAUGUAGUUGACGAGGAGGAGGUUUAUCGGAUUUUCGGCGGAUGACUCCAAA	0.000584 ± 5.9e-05	7.46e-05 ± 2e-05	0.000199 ± 3.2e-05	0.000301 ± 8.4e-05	0.000533 ± 5.6e-05	1.3 ± 0.3	
AUAAAAGCGCCAGAACUACAGAAAUGUAGUUGACGAGGAGGAGGUUUAUCGGAUUUUCGUCGGAUGCCUCCAAA	< 1e-05	< 1e-05	< 1e-05				
AUAAAAGCGCCAGAACUACAGAAAUGUAGUUGACGAGGAGGAGGUUUAUCGGAUUUUCGGCAGAUGCCUCCAAA	2.22e-05 ± 9.7e-06	< 1e-05			< 1e-05		
AUAAAAGCGCCAGAACUACAGAAAUGUAGUUGACGAGGAGGAGGUUUAUCGGAAUUUCGGCGGAUGCCUCCAAA	0.00109 ± 0.00027	9.56e-05 ± 1.7e-05	0.000442 ± 7.6e-05	0.00057 ± 0.00011	0.00101 ± 0.0002	1.56 ± 0.59	
AUAAAAGCGCCAGAACUACAGAAAUGUAGUUGACGAGGAGGAGGUUUAUCGGAGUUUCGGCGGAUGCCUCCAAA	0.00117 ± 0.00021	6.71e-05 ± 1.6e-05	0.000183 ± 2.3e-05	0.000616 ± 8.2e-05	0.000855 ± 0.00012	3.06 ± 0.84	
AUAAAAGCGCCAGAACUACAGAAAUGUAGUUGACGAGGAGGAGGUUUAUCGGAUUUUCGGCGGAUGCCUUCAAA	0.00261 ± 0.00024	0.000108 ± 3.7e-05	0.00037 ± 6.1e-05	0.000878 ± 0.00015	0.00194 ± 0.00018	3.87 ± 0.6	2.96e-05 ± 5.4e-06
AUAAAAGCGCCAGAACUACAGAAAUGUAGUUGACGAGGAGGAGGUUUAUCGGAUUUUCGGCGGAUGCCUACAAA	6.21e-05 ± 4e-06	4.3e-05 ± 1.3e-05	5.8e-05 ± 6.8e-06	6.59e-05 ± 6.1e-06	5.24e-05 ± 7.9e-06		2.42e-05 ± 1.2e-05
AUAAAAGCGCCAGAACUACAGAAAUGUAGUUGACGAGGAGGAGGUUUAUCGUAUUUUCGGCGGAUGUCUCCAAA	0.000336 ± 2.3e-05		7.82e-05 ± 1e-05	0.000163 ± 2e-05	0.00028 ± 2.8e-05	2.3 ± 0.31	
AUAAAAGCGCCAGAACUACAGAAAUGUAGUUGACGAGGAGGAGGUUUAUCGGAUUUUAGGCGGAUGCCUCCAAA	4.08e-05 ± 7.3e-06			4.01e-05 ± 9.9e-06	3.55e-05 ± 9.9e-06		
AUAAAAGCGCCAGAACUACAGAAAUGUAGUUGACGAGGAGGAGGUUUAUCGUAUUUUCGGCGGGUGCCUCCAAA	0.000348 ± 8.9e-05			0.00023 ± 3.8e-05	0.000262 ± 3.6e-05		
AUAAAAGCGCCAGAACUACAGAAAUGUAGUUGACGAGGAGGAGGUUUAUCGGAUUUUCGGCGGAUUCCUCCAAA	0.00018 ± 2.4e-05		2.89e-05 ± 1.1e-05	6.2e-05 ± 1.6e-05	0.00013 ± 1.5e-05	4.03 ± 1.3	
AUAAAAGCGCCAGAACUACAGAAAUGUAGUUGACGAGGAGGAGGUUUAUCGGAUUAUCGGCGGAUGCCUCCAAA	0.00139 ± 0.00027	6.31e-05 ± 1.3e-05	0.000166 ± 2.9e-05	0.000441 ± 7.1e-05	0.00102 ± 0.00014	4.47 ± 1.3	
